The results in this text go back to US20210388087A1 (Chugai, published 2021).

Numbering of substitutions follows the chain as printed.

The chains are these.
B1: GLS3000 N53R (antibody, name in Kabat numbering, V domains shown)
VH: QVQLVESGGGVVQPGRSLRLSCAASGFTFSNAWMHWVRQAPGKGLEWVAQIKAKSNNYATYYAESVKGRFTISRDDSKNSLYLQMNSLKTEDTAVYYCRYVHYGAYYGVDAWGQGTTVTVSS
VL: DIVMTQSPLSLPVTPGEPASISCRSSQSLVHSNRNTYLHWYQQKPGQAPRLLIYKVSRRFSGVPDRFSGSGSGTDFTLKISRVEAEDVGVYYCGQGTQVPYTFGQGTKLEIK
notes: one-arm IgG as m2
B2: GLS3000 Q27L (antibody, name in Kabat numbering, V domains shown)
VH: B1 VH
VL: B1 VL with Q27L, R58N
notes: one-arm IgG as m2
B3: GLS3000 N53Y (antibody, name in Kabat numbering, V domains shown)
VH: B1 VH
VL: B1 VL with R58Y
notes: one-arm IgG as m2
B4: GLS3000 R24G (antibody, name in Kabat numbering, V domains shown)
VH: B1 VH
VL: B1 VL with R24G, R58N
notes: one-arm IgG as m2
B5: GLS3000 Q93R (antibody, name in Kabat numbering, V domains shown)
VH: B1 VH
VL: B1 VL with R58N, Q98R
notes: one-arm IgG as m2
B6: GLS3000 P95G (antibody, name in Kabat numbering, V domains shown)
VH: B1 VH
VL: B1 VL with R58N, P100G
notes: one-arm IgG as m2
B7: GLS3000 R24Q (antibody, name in Kabat numbering, V domains shown)
VH: B1 VH
VL: B1 VL with R24Q, R58N
notes: one-arm IgG as m2
B8: GLS3000 Q93D (antibody, name in Kabat numbering, V domains shown)
VH: B1 VH
VL: B1 VL with R58N, Q98D
notes: one-arm IgG as m2
B9: GLS3000 R29A (antibody, name in Kabat numbering, V domains shown)
VH: B1 VH
VL: B1 VL with R34A, R58N
notes: one-arm IgG as m2
B10: GLS3000 N53S (antibody, name in Kabat numbering, V domains shown)
VH: B1 VH
VL: B1 VL with R58S
notes: one-arm IgG as m2
B11: GLS3000 Q93P (antibody, name in Kabat numbering, V domains shown)
VH: B1 VH
VL: B1 VL with R58N, Q98P
notes: one-arm IgG as m2
B12: GLS3000 R24T (antibody, name in Kabat numbering, V domains shown)
VH: B1 VH
VL: B1 VL with R24T, R58N
notes: one-arm IgG as m2
B13: GLS3000 Q27R (antibody, name in Kabat numbering, V domains shown)
VH: B1 VH
VL: B1 VL with Q27R, R58N
notes: one-arm IgG as m2
B14: GLS3000 Q90P (antibody, name in Kabat numbering, V domains shown)
VH: B1 VH
VL: B1 VL with R58N, Q95P
notes: one-arm IgG as m2
B15: GLS3000 Q90S (antibody, name in Kabat numbering, V domains shown)
VH: B1 VH
VL: B1 VL with R58N, Q95S
notes: one-arm IgG as m2
B16: GLS3000 P95S (antibody, name in Kabat numbering, V domains shown)
VH: B1 VH
VL: B1 VL with R58N, P100S
notes: one-arm IgG as m2
B17: GLS3000 Q27E (antibody, name in Kabat numbering, V domains shown)
VH: B1 VH
VL: B1 VL with Q27E, R58N
notes: one-arm IgG as m2
B18: GLS3000 P95L (antibody, name in Kabat numbering, V domains shown)
VH: B1 VH
VL: B1 VL with R58N, P100L
notes: one-arm IgG as m2
B19: GLS3000 Q90E (antibody, name in Kabat numbering, V domains shown)
VH: B1 VH
VL: B1 VL with R58N, Q95E
notes: one-arm IgG as m2
B20: GLS3000 R24S (antibody, name in Kabat numbering, V domains shown)
VH: B1 VH
VL: B1 VL with R24S, R58N
notes: one-arm IgG as m2
B21: GLS3000 P95D (antibody, name in Kabat numbering, V domains shown)
VH: B1 VH
VL: B1 VL with R58N, P100D
notes: one-arm IgG as m2
B22: GLS3000 R24D (antibody, name in Kabat numbering, V domains shown)
VH: B1 VH
VL: B1 VL with R24D, R58N
notes: one-arm IgG as m2
B23: GLS3000 Q93S (antibody, name in Kabat numbering, V domains shown)
VH: B1 VH
VL: B1 VL with R58N, Q98S
notes: one-arm IgG as m2
B24: GLS3000 Q90D (antibody, name in Kabat numbering, V domains shown)
VH: B1 VH
VL: B1 VL with R58N, Q95D
notes: one-arm IgG as m2
B25: GLS3000 R24E (antibody, name in Kabat numbering, V domains shown)
VH: B1 VH
VL: B1 VL with R24E, R58N
notes: one-arm IgG as m2
B26: GLS3000 Q93Y (antibody, name in Kabat numbering, V domains shown)
VH: B1 VH
VL: B1 VL with R58N, Q98Y
notes: one-arm IgG as m2
B27: GLS3000 P95E (antibody, name in Kabat numbering, V domains shown)
VH: B1 VH
VL: B1 VL with R58N, P100E
notes: one-arm IgG as m2
B28: GLS3000 N53W (antibody, name in Kabat numbering, V domains shown)
VH: B1 VH
VL: B1 VL with R58W
notes: one-arm IgG as m2
B29: GLS3000 N53V (antibody, name in Kabat numbering, V domains shown)
VH: B1 VH
VL: B1 VL with R58V
notes: one-arm IgG as m2
B30: GLS3000 Q90Y (antibody, name in Kabat numbering, V domains shown)
VH: B1 VH
VL: B1 VL with R58N, Q95Y
notes: one-arm IgG as m2
B31: GLS3000 Q90A (antibody, name in Kabat numbering, V domains shown)
VH: B1 VH
VL: B1 VL with R58N, Q95A
notes: one-arm IgG as m2
B32: GLS3000 R29I (antibody, name in Kabat numbering, V domains shown)
VH: B1 VH
VL: B1 VL with R34I, R58N
notes: one-arm IgG as m2
B33: GLS3000 Q93E (antibody, name in Kabat numbering, V domains shown)
VH: B1 VH
VL: B1 VL with R58N, Q98E
notes: one-arm IgG as m2
B34: GLS3000 R29D (antibody, name in Kabat numbering, V domains shown)
VH: B1 VH
VL: B1 VL with R34D, R58N
notes: one-arm IgG as m2
B35: GLS3000 Q27D (antibody, name in Kabat numbering, V domains shown)
VH: B1 VH
VL: B1 VL with Q27D, R58N
notes: one-arm IgG as m2
B36: GLS3000 R24A (antibody, name in Kabat numbering, V domains shown)
VH: B1 VH
VL: B1 VL with R24A, R58N
notes: one-arm IgG as m2
B37: GLS3000 Q27P (antibody, name in Kabat numbering, V domains shown)
VH: B1 VH
VL: B1 VL with Q27P, R58N
notes: one-arm IgG as m2
B38: GLS3000 R29G (antibody, name in Kabat numbering, V domains shown)
VH: B1 VH
VL: B1 VL with R34G, R58N
notes: one-arm IgG as m2
B39: GLS3000 Q93A (antibody, name in Kabat numbering, V domains shown)
VH: B1 VH
VL: B1 VL with R58N, Q98A
notes: one-arm IgG as m2
B40: GLS3000 P95A (antibody, name in Kabat numbering, V domains shown)
VH: B1 VH
VL: B1 VL with R58N, P100A
notes: one-arm IgG as m2
B41: GLS3000 R24Y (antibody, name in Kabat numbering, V domains shown)
VH: B1 VH
VL: B1 VL with R24Y, R58N
notes: one-arm IgG as m2
B42: GLS3000 R24P (antibody, name in Kabat numbering, V domains shown)
VH: B1 VH
VL: B1 VL with R24P, R58N
notes: one-arm IgG as m2
B43: GLS3000 N53T (antibody, name in Kabat numbering, V domains shown)
VH: B1 VH
VL: B1 VL with R58T
notes: one-arm IgG as m2

The target of this assay is T1, CD3 epsilon homodimer protein (UniProt P07766 23-126).
T1 construct: also called CD3 (CD3 epsilon)
T1 sequence (P07766 23-126): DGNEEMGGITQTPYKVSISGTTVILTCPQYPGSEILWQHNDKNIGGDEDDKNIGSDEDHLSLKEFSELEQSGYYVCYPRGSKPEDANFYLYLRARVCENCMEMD
The assay is described as follows: SPR Biacore T200, CD3e homodimer on chip, vs unaltered GLS3000 antibody. (In general: SPR reads the build-up and loss of mass on a sensor chip optically.)
In the case of B1, the “ratio of amounts bound (Z=Y/X)” value turned out to be 1.58.

For the molecule B2, the “ratio of amounts bound (Z=Y/X)” value is 0.92.

As for B3, the “ratio of amounts bound (Z=Y/X)” value came out at 0.67.

Take B4: the “ratio of amounts bound (Z=Y/X)” value was 0.89.

Consider B5, for which the “ratio of amounts bound (Z=Y/X)” value is 1.13.

In the case of B6, the “ratio of amounts bound (Z=Y/X)” value is 0.37.

Consider B7, for which the “ratio of amounts bound (Z=Y/X)” value came out at 0.9.

Turning to B8, the “ratio of amounts bound (Z=Y/X)” value turned out to be 0.72.

As for B9, the “ratio of amounts bound (Z=Y/X)” value came out at 0.63.

For B10, the “ratio of amounts bound (Z=Y/X)” value is 0.69.

Turning to B11, the “ratio of amounts bound (Z=Y/X)” value worked out at 0.25.

Regarding B12, the “ratio of amounts bound (Z=Y/X)” value turned out to be 0.88.

Take B13: the “ratio of amounts bound (Z=Y/X)” value came out at 1.19.

As to B14, the “ratio of amounts bound (Z=Y/X)” value came to 0.27.

With B15, the “ratio of amounts bound (Z=Y/X)” value worked out at 0.73.

With B16, the “ratio of amounts bound (Z=Y/X)” value came to 0.43.

In the case of B17, the “ratio of amounts bound (Z=Y/X)” value was found to be 0.88.

For B18, the “ratio of amounts bound (Z=Y/X)” value worked out at 0.24.

Regarding B19, the “ratio of amounts bound (Z=Y/X)” value came to 0.86.

Turning to B20, the “ratio of amounts bound (Z=Y/X)” value was found to be 0.89.

On to B21, for which the “ratio of amounts bound (Z=Y/X)” value was 0.24.

B22: the “ratio of amounts bound (Z=Y/X)” value was found to be 0.75.

As for B23, the “ratio of amounts bound (Z=Y/X)” value worked out at 0.96.

On to B24, for which the “ratio of amounts bound (Z=Y/X)” value amounted to 0.19.

Take B25: the “ratio of amounts bound (Z=Y/X)” value was determined as 0.83.

B26: the “ratio of amounts bound (Z=Y/X)” value came out at 0.87.

For the molecule B27, the “ratio of amounts bound (Z=Y/X)” value was 0.39.

Regarding B28, the “ratio of amounts bound (Z=Y/X)” value amounted to 0.81.

For the molecule B29, the “ratio of amounts bound (Z=Y/X)” value was 0.56.

For the molecule B30, the “ratio of amounts bound (Z=Y/X)” value was 0.17.

In the case of B31, the “ratio of amounts bound (Z=Y/X)” value was determined as 0.5.

Take B32: the “ratio of amounts bound (Z=Y/X)” value was 0.37.

In the case of B33, the “ratio of amounts bound (Z=Y/X)” value worked out at 0.75.

Regarding B34, the “ratio of amounts bound (Z=Y/X)” value is 0.41.

As to B35, the “ratio of amounts bound (Z=Y/X)” value worked out at 0.85.

Turning to B36, the “ratio of amounts bound (Z=Y/X)” value was 0.86.

Turning to B37, the “ratio of amounts bound (Z=Y/X)” value is 0.29.

As for B38, the “ratio of amounts bound (Z=Y/X)” value came to 0.67.

For the molecule B39, the “ratio of amounts bound (Z=Y/X)” value is 0.85.

B40: the “ratio of amounts bound (Z=Y/X)” value is 0.63.

Take B41: the “ratio of amounts bound (Z=Y/X)” value came to 0.87.

For B42, the “ratio of amounts bound (Z=Y/X)” value was found to be 0.7.

Turning to B43, the “ratio of amounts bound (Z=Y/X)” value was found to be 0.56.
